Kd data for two molecules are collected here from publication PMC9484220.

In experiment [1] the target is AQP2 protein (eukaryotic expression, purified; Flag-Mcherry tag excised) (UniProt P41181). In words: SPR; BIAcore T200; AQP2 immobilised on CM5 chip by amine coupling (10 mM NaAc, pH 4.0); MIAC peptide injected; HBS-EP buffer; equilibrium Req values of 5 concentrations fitted to 1:1 binding. (In general: Surface plasmon resonance follows binding to a sensor surface in real time, without labels.)

The target in experiment [2] is chemosynthetic peptide MIAC labeled by CY5. In words: MST; CY5-labeled MIAC with AQP2 protein, incubated 5 min at room temperature, premium-coated capillaries, Monolith NT.115.

What is called Kd is the concentration at which binding is half-saturated. High values mean a looser complex, low ones a tighter complex. chemically synthesized MIAC polypeptide displayed a Kd in experiment [1] of 5.13 µM.

B1: AQP2 protein (eukaryotic expression, purified; Flag-Mcherry tag excised) (natural protein)
chain: MWELRSIAFSRAVFAEFLATLLFVFFGLGSALNWPQALPSVLQIAMAFGLGIGTLVQALGHISGAHINPAVTVACLVGCHVSVLRAAFYVAAQLLGAVAGAALLHEITPADIRGDLAVNALSNSTTAGQAVTVELFLTLQLVLCIFASTDERRGENPGTPALSIGFSVALGHLLGIHYTGCSMNPARSLAPAVVTGKFDDHWVFWIGPLVGAILGSLLYNYVLFPPAKSLSERLAVLKGLEPDTDWEEREVRRRQSVELHSPQSLPRGTKA
In turn, B1 returned a Kd in experiment [2] of 6.92 µM.
